These results are taken from paper PMC11601584, “The RNA receptor RIG-I binding synthetic oligodeoxynucleotide promotes pneumonia survival”.

The target of series [1] is T1, rhRIG-I (236-925), CARD-less (Homo sapiens, UniProt O95786 236-925).
T1 sequence: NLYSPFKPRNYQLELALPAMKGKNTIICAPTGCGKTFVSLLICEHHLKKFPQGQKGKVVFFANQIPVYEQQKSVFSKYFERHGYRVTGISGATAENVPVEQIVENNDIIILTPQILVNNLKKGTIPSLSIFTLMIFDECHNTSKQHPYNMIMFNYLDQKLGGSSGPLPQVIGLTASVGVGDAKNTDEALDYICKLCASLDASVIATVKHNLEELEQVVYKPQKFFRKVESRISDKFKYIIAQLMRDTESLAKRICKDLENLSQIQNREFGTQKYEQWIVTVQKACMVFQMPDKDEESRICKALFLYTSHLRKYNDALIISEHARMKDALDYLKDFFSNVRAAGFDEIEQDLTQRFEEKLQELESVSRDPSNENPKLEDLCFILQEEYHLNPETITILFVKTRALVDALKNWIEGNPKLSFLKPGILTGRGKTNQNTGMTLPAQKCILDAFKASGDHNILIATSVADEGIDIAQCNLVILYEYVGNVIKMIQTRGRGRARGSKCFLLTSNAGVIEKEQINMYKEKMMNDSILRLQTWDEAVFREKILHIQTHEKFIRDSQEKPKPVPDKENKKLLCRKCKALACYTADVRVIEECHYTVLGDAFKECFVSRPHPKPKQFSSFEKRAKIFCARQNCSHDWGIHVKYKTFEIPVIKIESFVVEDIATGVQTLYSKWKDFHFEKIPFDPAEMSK
The series is described as follows: fluorescence anisotropy; no nucleotide; 4 mM MgCl2; Kd only in figure; FP: 20 mM Hepes pH 7.5, 150 mM NaCl, 2 mM TCEP, 4 mM MgCl2, 5% glycerol, 25 C, 2.5 nM labeled oligo; EMSA: 30 min on ice, 6% native gel, 0.5x TBE. To be noted: protein: recombinant; tags: N-terminal His-tag, removed by TEV; label: 5' FAM on strand 1; blunt. (In general: Fluorescence polarisation rises when a labelled molecule tumbles more slowly, as on binding a larger partner.)

In series [2] the target is T1, rhRIG-I (236-925), CARD-less. The series is described as follows: EMSA; ODN stock 2.5 uM, protein 0-32 uM, on ice; FP: 20 mM Hepes pH 7.5, 150 mM NaCl, 2 mM TCEP, 4 mM MgCl2, 5% glycerol, 25 C, 2.5 nM labeled oligo; EMSA: 30 min on ice, 6% native gel, 0.5x TBE. To be noted: protein: recombinant; tags: N-terminal His-tag, removed by TEV; 25-mer described as palindromic; partly self-complementary. Background: Mobility shift assays separate free from complexed probe on a gel.

Series [3] shares this target. The series is described as follows: fluorescence anisotropy; no nucleotide; 4 mM MgCl2; affinity similar to RNA, Kd only in figure; FP: 20 mM Hepes pH 7.5, 150 mM NaCl, 2 mM TCEP, 4 mM MgCl2, 5% glycerol, 25 C, 2.5 nM labeled oligo; EMSA: 30 min on ice, 6% native gel, 0.5x TBE. To be noted: protein: recombinant; tags: N-terminal His-tag, removed by TEV; label: 5' FAM; 25-mer described as palindromic; partly self-complementary.

B1: 12-mer 5'ppp dsRNA (dsRNA)
RNA 1: CAUGUGGAGCCC
RNA 2: GGGCUCCACAUG
modifications: 5' triphosphate on strand 2
With B1, in series [1], the binding result was “binds”.

Take TCGTCGTCGTTCGAACGACGTTGAT (ssDNA, complete phosphorothioate backbone) [ODN M362, biotinylated]: the binding result in series [2] was “binds”.

Consider TCGTCGTCGTTCGAACGACGTTGAT (ssDNA, complete phosphorothioate backbone) [ODN M362, FAM], for which the binding result in series [3] is given as “binds”.
